This is an account of results in publication PMC6044717 (ACS Omega, 2018).

Data set [1] deals with Human recombinant integrin α5β1 (human) (UniProt P08648). Briefly: fluorescence polarisation. (In general: Fluorescence polarisation rises when a labelled molecule tumbles more slowly, as on binding a larger partner.)
A short description of data set [2]: Solubility in water. Particulars: physiological pH and temperature. The class given is physicochemical.
The target in data set [3] is fluorescein isothiocyanate (FITC)-conjugated GRGDSP peptide. Briefly: fluorescence polarisation.

The term IC50 denotes the midpoint of a concentration-inhibition curve. What is called Ki is the dissociation constant of the complex between target and ligand, obtained from inhibition or displacement. “depsipeptide R-Glc-D (arginine–glycolic acid–aspartic acid)”: in data set [1], the IC50 came out at 1120 µM and the Ki was determined as 454 µM.
In the case of `O=C(N[C@@H](Cc1ccccc1)C(=O)O)OCC1c2ccccc2-c2ccccc21` [Fmoc-F], in data set [2], the solubility in water entry was “not readily soluble”.
The term Kd denotes the equilibrium constant for the complex coming apart. “Human recombinant integrin α5β1 (from UniProt P08648 42-1049; P05556 21-728) (complex)” had a Kd in data set [3] of 0.207 µM.
With “arginine–glycine–aspartic acid tripeptide (RGD)”, in data set [1], the IC50 was found to be 26.8 µM and the Ki was 10.8 µM.
